The target in test [1] is T1, human MuSK (human, UniProt O15146 24-495).
T1 construct: Recombinant protein coated on ELISA plates (R&D Systems cat. 10189-MK) or on the Biacore chip; also called human muscle-specific tyrosine protein kinase; full length human MuSK
T1 sequence: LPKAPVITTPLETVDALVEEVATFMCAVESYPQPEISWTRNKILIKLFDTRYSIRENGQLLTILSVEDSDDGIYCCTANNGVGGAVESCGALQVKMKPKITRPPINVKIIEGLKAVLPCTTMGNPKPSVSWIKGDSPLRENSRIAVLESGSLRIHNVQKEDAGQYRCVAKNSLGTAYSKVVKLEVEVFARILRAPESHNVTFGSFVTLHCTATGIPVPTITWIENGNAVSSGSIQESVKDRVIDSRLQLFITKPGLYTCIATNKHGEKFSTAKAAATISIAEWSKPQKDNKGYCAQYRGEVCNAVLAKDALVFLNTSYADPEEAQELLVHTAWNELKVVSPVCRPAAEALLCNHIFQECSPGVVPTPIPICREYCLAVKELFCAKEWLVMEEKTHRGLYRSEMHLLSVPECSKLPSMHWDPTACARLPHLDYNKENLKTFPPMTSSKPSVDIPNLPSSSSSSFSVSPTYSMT
Nature of the test: Biacore T200, MuSK on chip (200RU), 22.2 nM Fab, dissociation pH 7.4. The method, then: (§1) In order to study pH dependent binding of the antibodies described herein to MuSK, a Biacore T200 was used. Briefly, a CMS chip was coated with human and mouse MuSK (200RU) and 22.2 nM of Fab was applied and kinetic parameters calculated. Association was done at pH7.4, dissociation was done at pH 7.4 and also at pH 5.5. The following Fabs were tested, X2, X2m4, X3, X9, X17, 3B2 and 3B2g2m1 (Table 10 and FIG. 23). […] Binding affinity at pH 5.5 is very low, resulting in a rapid dissociation at endosomal pH allowing 3B2g2m1 to recycle.

The target in test [2] is T2, mouse MuSK (mouse, UniProt Q61006 22-494, limits assumed).
T2 construct: Coated on ELISA plates or on the Biacore chip; also called full length mouse MuSK; mouse MuSK (in house produced in HEK293 cells)
T2 sequence (looked up): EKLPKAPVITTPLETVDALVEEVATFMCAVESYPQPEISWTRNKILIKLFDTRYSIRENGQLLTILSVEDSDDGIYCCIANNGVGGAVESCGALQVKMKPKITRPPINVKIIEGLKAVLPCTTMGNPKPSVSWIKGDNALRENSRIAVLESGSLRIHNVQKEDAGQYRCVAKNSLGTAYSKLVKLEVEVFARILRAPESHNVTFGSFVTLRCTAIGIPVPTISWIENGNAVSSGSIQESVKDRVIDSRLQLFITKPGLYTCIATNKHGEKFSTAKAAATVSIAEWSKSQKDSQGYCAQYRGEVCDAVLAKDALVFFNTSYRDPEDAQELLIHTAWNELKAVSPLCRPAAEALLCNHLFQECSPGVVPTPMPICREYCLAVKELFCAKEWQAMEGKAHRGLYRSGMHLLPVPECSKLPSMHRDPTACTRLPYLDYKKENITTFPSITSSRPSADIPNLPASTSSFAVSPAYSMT
The test is described as above. The method, then:
as §1

In test [3] the target is T1, human MuSK. Nature of the test: Biacore T200, MuSK on chip (200RU), 22.2 nM Fab, dissociation pH 5.5. The method, then: as §1
(In general: SPR reads the build-up and loss of mass on a sensor chip optically.)

The target in test [4] is T2, mouse MuSK. The test is described as above. The method, then: as §1
In test [5] the target is T1, human MuSK. The test can be described thus: Biacore T200, off rate at pH 5.5 against pH 7.4. The method, then:
as §1

Test [6] deals with T2, mouse MuSK. Nature of the test: Biacore T200, off rate at pH 5.5 against pH 7.4. Here is the method:
as §1

Test [7] concerns the target T3, hECD: full-length extracellular region of human MuSK (E22 to T495) with C-terminal Avi- and His6-tags (human, UniProt O15146 22-495, biotinylated in vitro using the BirA enzyme).
T3 construct: also called human ECD; not shown: Avi- and His6-tags
T3 sequence: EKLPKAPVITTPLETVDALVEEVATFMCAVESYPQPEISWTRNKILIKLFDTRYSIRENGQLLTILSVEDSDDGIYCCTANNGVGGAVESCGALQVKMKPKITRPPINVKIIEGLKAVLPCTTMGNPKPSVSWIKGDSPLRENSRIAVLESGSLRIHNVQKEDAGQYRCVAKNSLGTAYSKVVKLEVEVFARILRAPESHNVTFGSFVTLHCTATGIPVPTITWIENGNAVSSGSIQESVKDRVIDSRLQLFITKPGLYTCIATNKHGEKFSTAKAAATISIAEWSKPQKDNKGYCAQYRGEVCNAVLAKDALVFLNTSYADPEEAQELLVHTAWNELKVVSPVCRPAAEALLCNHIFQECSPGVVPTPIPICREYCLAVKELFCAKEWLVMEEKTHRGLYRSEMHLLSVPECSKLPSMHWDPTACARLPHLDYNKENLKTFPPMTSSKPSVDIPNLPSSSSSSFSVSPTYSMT
The test can be described thus: bead-binding assay, IgG format: biotinylated antigen on streptavidin beads, flow cytometry, 1:1 fit; average ± s.d., n=3.

Test [8] has as its target T4, mFz: Fz domain and C-terminal flanking sequence of mouse MuSK (D307 to T494) with C-terminal Avi- and … (mouse, UniProt Q61006 307-494, limits assumed, biotinylated in vitro using the BirA enzyme).
T4 construct: also called mouse Fz; not shown: Avi- and His6-tags
T4 sequence (looked up): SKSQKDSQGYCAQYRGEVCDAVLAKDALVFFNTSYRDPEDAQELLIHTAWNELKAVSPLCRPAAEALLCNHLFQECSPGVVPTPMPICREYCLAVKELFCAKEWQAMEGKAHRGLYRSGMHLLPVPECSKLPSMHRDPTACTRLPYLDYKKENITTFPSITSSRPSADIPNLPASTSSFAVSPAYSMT
Described as above.

Test [9] addresses T5, mECD: full-length extracellular region of mouse MuSK (E22 to T494) with C-terminal Avi- and His6-tags (mouse, UniProt Q61006 22-494, biotinylated in vitro using the BirA enzyme).
T5 construct: range 22-494; also called mouse ECD; not shown: Avi- and His6-tags
T5 sequence (looked up): T2 sequence (looked up)
The description is as above.

Test [10] deals with T6, hFz: Fz domain and C-terminal flanking sequence of human MuSK (K314-T495) with C-terminal Avi- and His6-tags (human, UniProt O15146 314-495, biotinylated in vitro using the BirA enzyme).
T6 construct: also called human Fz; not shown: Avi- and His6-tags
T6 sequence: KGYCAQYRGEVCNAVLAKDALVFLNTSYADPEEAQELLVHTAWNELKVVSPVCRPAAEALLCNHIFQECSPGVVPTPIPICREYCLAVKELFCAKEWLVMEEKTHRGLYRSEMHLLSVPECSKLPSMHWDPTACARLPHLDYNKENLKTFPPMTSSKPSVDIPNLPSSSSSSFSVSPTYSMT
The description is as above.

Numbering of substitutions follows the chain as printed.

As a reminder, the koff is the first-order rate constant of dissociation. Low values mean a long-lived complex, high ones a short-lived complex. In general, Kd refers to the constant that tells how readily two partners part at equilibrium.

B1: X2m4 Fab (Fab, V domains shown)
VH: EVQLVESGGGLVQPGGSLRLSCAASGFTVSSSSIHWVRQAPGKGLEWVASISSSYGSTSYADSVKGRFTISADTSKNTAYLQMNSLRAEDTAVYYCARSEGDRYVSGYSGLDYWGQGTLVTVSS
VL: DIQMTQSPSSLSASVGDRVTITCRASQSVSSAVAWYQQKPGKAPKLLIYSASSLYSGVPSRFSGSRSGTDFTLTISSLQPEDFATYYCQQSGVWLITFGQGTKVEIK
notes: Fab format
Turning to B1, the koff in test [1] was found to be 0.00867 s⁻¹; in test [2], 0.00337 s⁻¹; in test [3], 0.00586 s⁻¹; in [4], 0.00416 s⁻¹. Further, the “Ratio pH 5.5/7.4 of off rate” value was 0.7 in test [5] and 1.2 in [6].

B2: X9 Fab (Fab, V domains shown)
VH: EVQLVESGGGLVQPGGSLRLSCAASGFTFSSSSIHWVRQAPGKGLEWVASIYSSSGSTYYADSVKGRFTISADTSKNTAYLQMNSLRAEDTAVYYCARSGGEFYITSYYGMDYWGQGTLVTVSS
VL: B1 VL with G92S, V93S, W94S
notes: Fab format
As for B2, the koff was determined as 0.00059 s⁻¹ in test [1], 0.00015 s⁻¹ in test [2], 0.00083 s⁻¹ in test [3] and 0.00105 s⁻¹ in [4]. Also, the “Ratio pH 5.5/7.4 of off rate” value in test [5] came out at 1.4; in test [6], 7.1.

B3: 3B2g2m1 Fab (Fab, V domains shown)
VH: EVQLLESGGGLVQPGGSLRLSCAASGFTFSDYGMSWVRQAPGKGLEWVSAIPWSGGSTYYKESVKGRFTISRDNSKNTLYLQMNSLRAEDTAVYYCAKRSGRIAFGALDAWGQGTLVTVSS
VL: QTVVTQEPSFSVSPGGTVTLTCGLSSGSVTSSNYPDWYQQTPGQAPRTLIYSTDSRHSGVPDRFSGSILGNKAALTITGAQADDESDYYCGLYSYSGSKNYVFGGGTKLTVL
notes: Fab format
For B3, the off-rate constant (koff) worked out at 0.00472 s⁻¹ in test [1], 0.00766 s⁻¹ in test [2], 0.0288 s⁻¹ in test [3] and 0.0679 s⁻¹ in test [4]. Also, the “Ratio pH 5.5/7.4 of off rate” value in test [5] was 6.1; in test [6] it was 8.9.

B4: hIgG1-X17 (antibody, V domains shown)
VH: EVQLVESGGGLVQPGGSLRLSCAASGFTISYSSIHWVRQAPGKGLEWVASIYSSSGSTYYADSVKGRFTISADTSKNTAYLQMNSLRAEDTAVYYCARGDHGYYVFGYLGMDYWGQGTLVTVSS
VL: DIQMTQSPSSLSASVGDRVTITCRASQSVSSAVAWYQQKPGKAPKLLIYSASSLYSGVPSRFSGSRSGTDFTLTISSLQPEDFATYYCQQSYKPGALITFGQGTKVEIK
notes: human IgG1 Fc containing LALA mutations; also called hIgG-X17; X17 in human IgG1 format
As to B4, the Kd in test [7] was found to be 0.86 nM; in test [8] it was 0.68 nM; in test [9], 1.04 nM; in [10], 0.56 nM.

These data come from US20230151091A1 (NEW YORK UNIVERSITY, published 2023).
